Measurements taken from FireProtDB (doi:10.1021/bi982158q).

B1: Cytochrome b5, P00171 (parent)
chain: MAEESSKAVKYYTLEEIQKHNNSKSTWLILHYKVYDLTKFLEEHPGGEEVLREQAGGDATENFEDVGHSTDARELSKTFIIGELHPDDRSKITKPSESIITTIDSNPSWWTNWLIPAISALFVALIYHLYTSEN

Variants of: B1
Conditions: Bos taurus, pH 7, K2HPO4 5 mM, transition: 2, reversible: Yes, structure 1CYO, whole UniProt chain shown; for denaturant m value / denaturant midpoint (higher = more stable) / unfolding free energy: 25 °C, Urea; for Tm / change of melting temperature, mutant - wild type (higher = more stable): Thermal

Row | Variant | denaturant m value (Absorbance) [kcal/mol/M] | denaturant midpoint (higher = more stable) (Absorbance) [M] | unfolding free energy (Absorbance) [kcal/mol] | denaturant m value (Fluorescence) [kcal/mol/M] | denaturant midpoint (higher = more stable) (Fluorescence) [M] | unfolding free energy (Fluorescence) [kcal/mol] | Tm (Absorbance) [°C] | change of melting temperature, mutant - wild type (higher = more stable) (Absorbance) [°C] | Tm (Fluorescence) [°C] | change of melting temperature, mutant - wild type (higher = more stable) (Fluorescence) [°C]
1 | S23C | 0.97 | 6.5 | 6.9 | 0.56 | 2.5 | 1.4 | 75.5 | 0.3 | 52.7 | 2.6
2 | S23C R52C | 0.81 | 6.4 | 5.2 | 0.93 | 3.7 | 3.4 | 76 | 0.8 | 60.8 | 10.7
